Assay results reported in US12281155.

Experiments:
Details in all cases: remark: other sources report otherwise
[1] = molecular target: T1, recombinant SARS-CoV-2 Spike RBD domain, BA.2 variant (SARS-CoV-2); test: ELISA on coated RBD
[2] = molecular target: T2, recombinant SARS-CoV-2 Spike RBD domain, BA.4/5 variant (SARS-CoV-2); test: ELISA on coated RBD
[3] = molecular target: T3, recombinant SARS-CoV-2 Spike RBD domain, Delta variant (SARS-CoV-2); test: ELISA on coated RBD
[4] = molecular target: T1, recombinant SARS-CoV-2 Spike RBD …; test: competition ELISA, blocking of RBD binding to ACE2 ectodomain
[5] = molecular target: T2, recombinant SARS-CoV-2 Spike RBD …; test: as above
[6] = molecular target: T3, recombinant SARS-CoV-2 Spike RBD …; test: as above

B1: SPK002 antibody (parental version Cv2.3194 described in WO 2022/228827) (antibody, V domains shown)
VH: EVQLVESGGGLIQPGGSLRLSCAASGITVTSNYMSWVRQAPGKGLEWVSVIYPGGSTFYADSVKGRFTISRDNSKNTLYLQMNSLRAEDTAVYYCARDLVVYGMDVWGQGTTVTVS
VL: EIVLTQSPGTLSLSPGERATLSCRASQSVSSSYLAWYQQKPGQAPRLLIYGASSRATGIPGRFSGSGSGTDFTLTISRLEPEDFAIYYCQQGVTFGGGTKVEIK
Binder B1 has a Binding AUC [1] of 33, a Binding AUC [2] of 33 and a Binding AUC [3] of 34. The Blocking % [4] was 94%, the Blocking % [5] was 92% and the Blocking % [6] was 93%.
